US20240261333A1, “NOVEL TARGETS FOR ENHANCING ANTI-TUMOR IMMUNITY” (THE BROAD INSTITUTE, INC., priority 2021, published 2024)

T1: B3GNT2 (Homo sapiens, UniProt Q9NY97)
T1 construct: The respective ORFs of candidate genes [CD274 (NM_014143), MCL1 (NM_021960), JUNB (NM_002229), and B3GNT2 (NM_006577)] were synthesized; expressed in transfected cells; host or cells: A375 melanoma cells (lentiviral ORF overexpression)
T1 sequence (Q9NY97 1-397): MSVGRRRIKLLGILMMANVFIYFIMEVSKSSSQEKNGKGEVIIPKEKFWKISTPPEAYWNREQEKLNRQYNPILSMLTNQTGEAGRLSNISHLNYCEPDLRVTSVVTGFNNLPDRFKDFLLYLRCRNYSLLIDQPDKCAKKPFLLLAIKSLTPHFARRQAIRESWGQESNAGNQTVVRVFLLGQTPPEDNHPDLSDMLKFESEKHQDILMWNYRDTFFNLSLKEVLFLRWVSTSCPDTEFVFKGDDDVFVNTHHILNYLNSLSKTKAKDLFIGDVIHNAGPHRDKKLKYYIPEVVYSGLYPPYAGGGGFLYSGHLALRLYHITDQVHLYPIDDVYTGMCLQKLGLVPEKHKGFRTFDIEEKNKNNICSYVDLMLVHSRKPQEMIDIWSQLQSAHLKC

B1: CPT1A (protein)
chain: AEAHQAVAFQFTVTPDGIDLRLSHEALRQIYLSGLHSWKKKFIRFKNGIITGVYPASPSSWLIVVVGVMTTMYAKIDPSLGIIAKINRTLETANCMSSQTKNVVSGVLFGTGLWVALIVTMRYSLKVLLSYHGWMFTEHGKMSRATKIWMGMVKIFSGRKPMLYSFQTSLPRLPVPAVKDTVNRYLQSVRPLMKEEDFKRMTALAQDFAVGLGPRLQWYLKLKSWWATNYVSDWWEEYIYLRGRGPLMVNSNYYAMDLLYILPTHIQAARAGNAIHAILLYRRKLDREEIKPIRLLGSTIPLCSAQWERMFNTSRIPGEETDTIQHMRDSKHIVVYHRGRYFKVWLYHDGRLLKPREMEQQMQRILDNTSEPQPGEARLAALTAGDRVPWARCRQAYFGRGKNKQSLDAVEKAAFFVTLDETEEGYRSEDPDTSMDSYAKSLLHGRCYDRWFDKSFTFVVFKNGKMGLNAEHSWADAPIVAHLWEYVMSIDSLQLGYAEDGHCKGDINPNIPYPTRLQWDIPGECQEVIETSLNTANLLANDVDFHSFPFVAFGKGIIKKCRTSPDAFVQLALQLAHYKDMGKFCLTYEASMTRLFREGRTETVRSCTTESCDFVRAMVDPAQTVEQRLKLFKLASEKHQHMYRLAMTGSGIDRHLFCLYVVSKYLAVESPFLKEVLSEPWRLSTSQTPQQQVELFDLENNPEYVSSGGGFGPVADDGYGVSYILVGENLINFHISSKFSCPETGIISQGPSSDT
B2: HNRNPH1 (protein, UniProt P31943 1-449, looked up)
Heterogeneous nuclear …: MMLGTEGGEGFVVKVRGLPWSCSADEVQRFFSDCKIQNGAQGIRFIYTREGRPSGEAFVELESEDEVKLALKKDRETMGHRYVEVFKSNNVEMDWVLKHTGPNSPDTANDGFVRLRGLPFGCSKEEIVQFFSGLEIVPNGITLPVDFQGRSTGEAFVQFASQEIAEKALKKHKERIGHRYIEIFKSSRAEVRTHYDPPRKLMAMQRPGPYDRPGAGRGYNSIGRGAGFERMRRGAYGGGYGGYDDYNGYNDGYGFGSDRFGRDLNYCFSGMSDHRYGDGGSTFQSTTGHCVHMRGLPYRATENDIYNFFSPLNPVRVHIEIGPDGRVTGEADVEFATHEDAVAAMSKDKANMQHRYVELFLNSTAGASGGAYEHRYVELFLNSTAGASGGAYGSQMMGGMGLSNQSSYGGPASQQLSGGYGGGYGGQSSMSGYDQVLQENSSDFQSNIA
B3: COPA (protein)
chain: MLTKFETKSARVKGLSFHPKRPWILTSLHNGVIQLWDYRMCTLIDKFDEHDGPVRGIDFHKQQPLFVSGGDDYKIKVWNYKLRRCLFTLLGHLDYIRTTFFHHEYPWILSASDDQTIRVWNWQSRTCVCVLTGHNHYVMCAQFHPTEDLVVSASLDQTVRVWDISGLRKKNLSPGAVESDVRGITGVDLFGTTDAVVKHVLEGHDRGVNWAAFHPTMPLIVSGADDRQVKIWRMNESKAWEVDTCRGHYNNVSCAVFHPRQELILSNSEDKSIRVWDMSKRTGVQTFRRDHDRFWVLAAHPNLNLFAAGHDGGMIVFKLERERPAYAVHGNMLHYVKDRFLRQLDFNSSKDVAVMQLRSGSKFPVFNMSYNPAENAVLLCTRASNLENSTYDLYTIPKDADSQNPDAPEGKRSSGLTAVWVARNRFAVLDRMHSLLIKNLKNEITKKVQVPNCDEIFYAGTGNLLLRDADSITLFDVQQKRTLASVKISKVKYVIWSADMSHVALLAKHAIVICNRKLDALCNIHENIRVKSGAWDESGVFIYTTSNHIKYAVTTGDHGIIRTLDLPIYVTRVKGNNVYCLDRECRPRVLTIDPTEFKFKLALINRKYDEVLHMVRNAKLVGQSIIAYLQKKGYPEVALHFVKDEKTRFSLALECGNIEIALEAAKALDDKNCWEKLGEVALLQGNHQIVEMCYQRTKNFDKLSFLYLITGNLEKLRKMMKIAEIRKDMSGHYQNALYLGDVSERVRILKNCGQKSLAYLTAATHGLDEEAESLKETFDPEKETIPDIDPNAKLLQPPAPIMPLDTNWPLLTVSKGFFEGTIASKGKGGALAADIDIDTVGTEGWGEDAELQLDEDGFVEATEGLGDDALGKGQEEGGGWDVEEDLELPPELDISPGAAGGAEDGFFVPPTKGTSPTQIWCNNSQLPVDHILAGSFETAMRLLHDQVGVIQFGPYKQLFLQTYARGRTTYQALPCLPSMYGYPNRNWKDAGLKNGVPAVGLKLNDLIQRLQLCYQLTTVGKFEEAVEKFRSILLSVPLLVVDNKQEIAEAQQLITICREYIVGLSVETERKKLPKETLEQQKRICEMAAYFTHSNLQPVHMILVLRTALNLFFKLKNFKTAATFARRLLELGPKPEVAQQTRKILSACEKNPTDAYQLNYDMHNPFDICAASYRPIYRGKPVEKCPLSGACYSPEFKGQICRVTTVTEIGKDVIGLRISPLQFR
B4: PUF60 (protein)
chain: MATATIALQVNGQQGGGSEPAAAAAVVAAGDKWKPPQGTDSIKMENGQSTAAKLGLPPLTPEQQEALQKAKKYAMEQSIKSVLVKQTIAHQQQQLTNLQMAAVTMGFGDPLSPLQSMAAQRQRALAIMCRVYVGSIYYELGEDTIRQAFAPFGPIKSIDMSWDSVTMKHKGFAFVEYEVPEAAQLALEQMNSVMLGGRNIKVGRPSNIGQAQPIIDQLAEEARAFNRIYVASVHQDLSDDDIKSVFEAFGKIKSCTLARDPTTGKHKGYGFIEYEKAQSSQDAVSSMNLFDLGGQYLRVGKAVTPPMPLLTPATPGGLPPAAAVAAAAATAKITAQEAVAGAAVLGTLGTPGLVSPALTLAQPLGTLPQAVMAAQAPGVITGVTPARPPIPVTIPSVGVVNPILASPPTLGLLEPKKEKEEEELFPESERPEMLSEQEHMSISGSSARHMVMQKLLRKQESTVMVLRNMVDPKDIDDDLEGEVTEECGKFGAVNRVIIYQEKQGEEEDAEIIVKIFVEFSIASETHKAIQALNGRWFAGRKVVAEVYDQERFDNSDLSA
B5: TM9SF1 (protein)
chain: PGVEGVTHYKAGDPVILYVNKVGPYHNPQETYHYYQLPVCCPEKIRHKSLSLGEVLDGDRMAESLYEIRFRENVEKRILCHMQLSSAQVEQLRQAIEELYYFEFVVDDLPIRGFVGYMEESGFLPHSHKIGLWTHLDFHLEFHGDRIIFANVSVRDVKPHSLDGLRPDEFLGLTHTYSVRWSETSVERRSDRRRGDDGGFFPRTLEIHWLSIINSMVLVFLLVGFVAVILMRVLRNDLARYNLDEETTSAGSGDDFDQGDNGWKIIHTDVFRFPPYRGLLCAVLGVGAQFLALGTGIIVMALLGMFNVHRHGAINSAAILLYALTCCISGYVSSHFYRQIGGERWVWNIILTTSLFSVPFFLTWSVVNSVHWANGSTQALPATTILLLLTVWLLVGFPLTVIGGIFGKNNASPFDAPCRTKNIAREIPPQPWYKSTVIHMTVGGFLPFRYPPFIPWLLLSGS

Molecular target: T1, B3GNT2
Test: Co-IP of FLAG-tagged B3GNT2 followed by mass spectrometry
Type: cell-based
Set-up: C-term IgG / C-term flag: unit not given here
Details: Co-IP followed by mass spectrometry of B3GNT2; for C-term flag / C-term IgG: C-term tag; for C-term flag / N-term FLAG: FLAG pull-down; for C-term IgG / N-term IgG: IgG pull-down; for N-term FLAG / N-term IgG: N-term tag
Method in brief: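 FLAG-tagged B3GNT2 immunoprecipitated from cell lysate (HEPES, 1% Triton X-100, 150 mM NaCl) with anti-FLAG versus […], overnight at 4° C, then captured on Protein A/G magnetic beads for 4 h. Two biological replicates per condition. Peptides fractionated and analyzed by nano-LC on an Orbitrap Elite in data-dependent mode.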

| Molecule | C-term flag | C-term IgG | N-term FLAG | N-term IgG |
| --- | --- | --- | --- | --- |
| B1 | 2 | 0 | 2 | 0 |
| B2 | 15 | 11 | 11 | 11 |
| B3 | 2 | 0 | 2 | 0 |
| B4 | 6 | 5 | 6 | 5 |
| B5 | 4 | 0 | 0 | 0 |
